Experimental data from article PMC2897846.

Target: CD40 on human B cells (human (endogenous in B cells from PBMC)) (UniProt P25942)
Chain of UniProt P25942 (P25942 21-277): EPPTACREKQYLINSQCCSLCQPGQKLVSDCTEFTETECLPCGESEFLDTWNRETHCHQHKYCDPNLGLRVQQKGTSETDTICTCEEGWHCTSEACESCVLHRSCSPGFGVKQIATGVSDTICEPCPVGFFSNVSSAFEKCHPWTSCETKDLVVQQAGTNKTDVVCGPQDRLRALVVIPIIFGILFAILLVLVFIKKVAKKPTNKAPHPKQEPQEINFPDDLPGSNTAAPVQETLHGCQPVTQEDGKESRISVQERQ

CD40 ligand (CD40L, CD154) incorporated into HIV virions (from UniProt P29965 1-261)
intracellular AID protein (flow cytometry) in CD19+ B cells exposed to CD40L+ HIV NL4-3 for three days (% of CD19+ cells): 2.11
